The sequences below were run on Saccharomyces cerevisiae (assay: transcriptional activation domain activity (GFP:mCherry ratio, weighted mean of sorted bins, harmonized to initial dataset scale) (arbitrary fluorescence ratio units); higher = stronger transcriptional activation). Settings: beta-estradiol 1 µM; induction time 4 h.
Experimental: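 53-aa protein tiles (fungal proteins plus yeast TF control tiles) fused C-terminally to a DBD-estrogen-binding domain-mCherry synthetic TF, integrated in S. cerevisiae (URA3 locus) with a GFP reporter. Cells were induced with 1 uM beta-estradiol for 4 h at 30 C, FACS-sorted into 8 bins by GFP:mCherry ratio and barcodes sequenced. Activity is the read-weighted mean bin fluorescence (GFP:mCherry), averaged over barcodes (median 12); tiles under 50 reads were discarded. New active-learning values were harmonized by linear fit onto the scale of the initial (Hummel et al.) dataset. The assay saturates at low and high signal.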
“TSAVLDLGDERDVADYDVISLAEDYVGRDNRKGQKRAMRLDESGPRMEIKVVK” was tested, and the “transcriptional activation domain activity” value was 45400.
In the case of “SHNTHTLSLSLPFPSYSSYSDLIFLFLFLLLFFFFLFLFLFLFLFLFLFSLPF”, the “transcriptional activation domain activity” value is reported as 34100.
With “SPQRSTSSTSSKAAAAPKAAAQPKQQQQKPAAPSKPAAAAAAPKTAPKPAAAS” the “transcriptional activation domain activity” value was 26000.
For “DATPAAPANGNDGFHEVQHRGRGRGGFQGEGRGGGGYRGRGGRGGEGRGRGRG”, the “transcriptional activation domain activity” value was 25800.
“RRVWLKYILYFVYGIVDWVYSTSLLKTMVWLRLPLYITVGKHVLVGLVGSMWV” was tested, and the “transcriptional activation domain activity” value was 50000.
For “DEPFKCTQSRCSIILPRDLMAVHFSYRRRTLKLIRSCPITKCSFRIRLFRPQS”, the “transcriptional activation domain activity” value was 69700.
For “MHSGPSFSCFFSVFPSFIFGLSTSSTLYIYFFFLLLDQLFVPSFFALLLLFLP”, the “transcriptional activation domain activity” value was 41400.
For “EVKETKEGESQSPAKQEVVQEETVKPSPPQPPQQTKQQKKKKLVLTSGGGGRG”, the “transcriptional activation domain activity” value was under 6570.
With “KLGLGPTYGIMLALLVSHGIVCCFKTSILARLNVYYVILNLGTLIALSVALLV” the “transcriptional activation domain activity” value was 50600.
In the case of “MPCLCHFWMTCLCHFRMPLFFYFQMPCLCHFWMTCLCHFLMPCLFYFWMPFLC”, the “transcriptional activation domain activity” value is reported as 43200.
“LRLAVKNMSEDLPPLVPDIVNLVKRLKWSKAACCYYVLVSNALSLVVFLIDTY” was tested, and the “transcriptional activation domain activity” value was 54900.
With “EGEVTTTSSEEETTTEEETTRTRPTRTTTTEEEQTTTDASSTTTSQDEETTTP” the “transcriptional activation domain activity” value was 39200.
With “LFLFLCLFSPPINNPPFSSLIGEFLPLILSSWFYSFLISVWWNRWEKAFSWWL” the “transcriptional activation domain activity” value was 33800.
In the case of “MGMAYGVCCMYFLEPWWVGAISLVRFLGVGVFTLCMYFPSIMIFYFLLFFIIF”, the “transcriptional activation domain activity” value is reported as 51000.
With “SLFLSFFIFPLFLFFYFFSFFFDLFIVCMVHLFLGKDLYLFGYQKVLFCFCLC” the “transcriptional activation domain activity” value was 65700.
For “AILLGEAYGYRILPFVPVWTIFATVNLAYAVCSTSWLLYWVYLVCCWPTLLIV”, the “transcriptional activation domain activity” value was 55500.
For “FLSCLLAMEIIQHYMYVVAIKDRKAWIGDSPFELSMIGLWNLVIVWLKLLLPW”, the “transcriptional activation domain activity” value was 59900.
In the case of “IRGLLILRYQRGYKDLNHCEPQVIFYDRLCGFLVLGWFLHYFPFFLMSRQLFL”, the “transcriptional activation domain activity” value is reported as 88200.
“YKCVGLSPDCKTAFFMNVTAFLVCPLANFESGKIPKTDLILLSKSSRECKYKA” was tested, and the “transcriptional activation domain activity” value was 29600.
For “RYIATGRGFATTRISFSILFSRFAGPSIYLGMRTLLMLLYVTLSFWTPYLIYF”, the “transcriptional activation domain activity” value was 54700.
“SLVAATATAVEAEPPQPVKRPRGRPKKDATVASSPKPARATKAKAKAKAAVPP” was tested, and the “transcriptional activation domain activity” value was 24700.
With “WHVAYPLVATGLCVAPQEFFLKHWLAFLREKGTRSFVLNGMLRLLWTYLYRCQ” the “transcriptional activation domain activity” value was 45800.
In the case of “AWAVQTKVYLNYLWHTTNKFTTGFKVIYIQCHPDFVTWEQMKIMAMFLCCLCF”, the “transcriptional activation domain activity” value is reported as 55800.
“ANHQVYVDWWYTWCLTYFMETHRDVCIVLKKSLKWIPVAGWGMQFFKFIFLAR” was tested, and the “transcriptional activation domain activity” value was 39400.
For “MKGIRLYFRYVLLHVLLLLPSLPFFFPYLCRRFTCSFMNILIGFLFCFFLYIC”, the “transcriptional activation domain activity” value was 55300.
With “GELLYIILSIVDVDLICRFTIIHPIPTFDNLTALNMVIDRMQEVGLYLVYDMR” the “transcriptional activation domain activity” value was 52300.
In the case of “AEDADADGRTQRQGKGAGASSGSERRTHKARSRKSAKLDSKEKDGEKDKEWKG”, the “transcriptional activation domain activity” value is reported as 23600.
With “QAAFRQRRANYIATLEETGWVVSILLYLHRSSLSFSAVTSLESVVLQLQDSCR” the “transcriptional activation domain activity” value was 53400.
With “KDGKNEVIVDMQRVRERKREIVNSFRGGSEKRVADAGVTVLMGSASFVDSKTV” the “transcriptional activation domain activity” value was 34900.
In the case of “AVPGEVTEAEADSDVKTDDAAAAPATDEAAKPKKKKKKFARKPRRKAAAPAEG”, the “transcriptional activation domain activity” value is reported as 17100.
For “AKEDEGEKGKNKDKSKKEEEKKEEGEKKEEGEVKGVKEVEELKVEQPKEEVKL”, the “transcriptional activation domain activity” value was 17700.
“MRLRVFFFISSFMWLLLVSFYCSFFSFAFTLFFFRFPPFFFSLFRFTLLPSPS” was tested, and the “transcriptional activation domain activity” value was 63700.
For “SEIALSSSTHSLRLYGKSVGGGKVAGMVRMAYSAKSGVTVKVSVRSEEGGLAG”, the “transcriptional activation domain activity” value was 37500.
In the case of “AADGSPAPRPNAICIHEVDQGIQWKHTNHRTGKAVVVRKRQLVLQQIITVANY”, the “transcriptional activation domain activity” value is reported as 44500.
In the case of “AKAAEAVVAPEADAEKAEEAVVEKPKSTKGRKRKADEEDAEEVAAEANGAEAA”, the “transcriptional activation domain activity” value is reported as 28200.
In the case of “PVNFIFVKLAKVFPLDYLFMVLLIIYFFLVTLTGIITLGVRFFWITLFRIRRG”, the “transcriptional activation domain activity” value is reported as 19400.
In the case of “MEWVRLLSKEVLLFYSIFFFSFVSFTVLTLFPLHESSILSRLLIFIYPLRHLV”, the “transcriptional activation domain activity” value is reported as 44700.
“QPIASCVVKVNFGMISNDSNFCGLVSGIIYVYMGLGGAFMLLVAVCVIKVRYT” was tested, and the “transcriptional activation domain activity” value was 67700.
In the case of “SVASEKGADDSAEEDHEHEHRHKKRRHREHREREHRSSRHKHRSSRRHAEEVD”, the “transcriptional activation domain activity” value is reported as 21000.
For “GILPPLLLAIVFGVLPFILRGLAWYECVPRYSLMSISVYRRFYLFLLIHGFLI”, the “transcriptional activation domain activity” value was 51900.
“GLQGQYNAYSTKHNINVPHGDILVFSLACGQIMYAWLMRPDTLPISYSNWICN” was tested, and the “transcriptional activation domain activity” value was 39300.
With “MFDYLVFTLCPCIFFILFLLILLVLLHKALVVFFFYHYSILVLVVPYYCLFVF” the “transcriptional activation domain activity” value was 86400.
“TRMLLHWFHCQDNVWYYYVAFFFAELLVYTVMIVSIGSILFQWRFFCRVAYKM” was tested, and the “transcriptional activation domain activity” value was 32000.
For “MALASPVFFFFYLYFIILLFGVGIYLFTFVMSYHTMVMQIIHVSCYNHRYIPV”, the “transcriptional activation domain activity” value was 47200.
For “TISYLILAGSDYFEWCYLSIYQYSTLCNSSLLDVWRDIQYLWILIMFIWNILP”, the “transcriptional activation domain activity” value was 52100.
With “EGAQDCGESESEGANESEEESEEENVFVVGKILDKRTNGKRKQVEYLVRCESQ” the “transcriptional activation domain activity” value was 39600.
In the case of “AAFFFALLWVVFRSSWPSPLFFFLFFFVGLVLLAFLAFGFPFARFLLPLGVFF”, the “transcriptional activation domain activity” value is reported as 26000.
For “EDEEESSKEETEKQRNKLRELIYEFIAKDVASRVELAKYWLSEEWNCAVGPQT”, the “transcriptional activation domain activity” value was 35300.
In the case of “VETRSFWFLPVIQKHALHLTMVDILSSTPGIWCLSEFMIGHLLLCVHLRSISV”, the “transcriptional activation domain activity” value is reported as 60500.
“KQSWSYFYKVLQGLLMDLFFIITIPIYFYYYLPNWNPPLWTLLDFTTLESLNF” was tested, and the “transcriptional activation domain activity” value was 69000.
For “LFLSLSSACPSFFPLLPFPFLLAFLITFLAPFPSFLSLLVPHSVPIPLSLPTS”, the “transcriptional activation domain activity” value was 49800.
For “IIQKLCFITVKLFFTKYIPLQAILINLILIGYLMFVVRHFPYRYTTLNNLELI”, the “transcriptional activation domain activity” value was 55000.
“EKRGLDTKNIYVGAEPFDAELRQRLESEQSFSFRSTDIIHFVAMLLIRYLFDL” was tested, and the “transcriptional activation domain activity” value was 59300.
For “MDCLGMEFIGCEIFGAVALIFLFFFLFFFFFIFFHFLLIFLFSFSFFLFFFFV”, the “transcriptional activation domain activity” value was 47200.
In the case of “YIKGVVLALWILDTFGMCLIFHILYWYLITNYGNPLSITEPIWSIILHIMVTA”, the “transcriptional activation domain activity” value is reported as 48500.
For “ACVALVVLFADSLDDLIPGWGIVAWKIVCGFILVPLGFLPLRLLSFTSILGVM”, the “transcriptional activation domain activity” value was 58500.
For “MSYGKRDEDAELGLVKVDRTQVFQEARLFNSSPIQPRKCRILLTKIALLLYTG”, the “transcriptional activation domain activity” value was 24100.
In the case of “YFRAEAMKTFFSRNYWQLEVRLYVPTKRKGIFHGKDWRINVLLGMWWVVVHIA”, the “transcriptional activation domain activity” value is reported as 55100.
With “CMLRFVIWLCSKWVPYRSGVWEEFKFLLDHPRRCFTLLFPSGANWWLFWVLIL” the “transcriptional activation domain activity” value was 60600.
In the case of “EKKGKEGKRMRREKREIKEPEEKWEEKKKKPEEPEDVGARPRKPRREESKSRA”, the “transcriptional activation domain activity” value is reported as 37600.
For “EEPKAEEAAPAAEAPAAEAPAAETPAAEPAAEQPATEEAKPAESAATETKKED”, the “transcriptional activation domain activity” value was 12500.
“WERIREKASILALAYRLGVLLFALHFLFCLSQPPRFARLFWLSFSLLVPSTFF” was tested, and the “transcriptional activation domain activity” value was 59000.
With “MVMYHWGMRCVFLYTNYIIFGFGFVFSFLFSFFFFFFPFTCIFFFLFYLIFIF” the “transcriptional activation domain activity” value was 58900.
With “MSSDDDSAPRTKRGGKPTTKKQQKRAIARACDRCRQKKVKCDGASLAIGAVCQ” the “transcriptional activation domain activity” value was 40600.
With “SAFGGGGGASAFGSGTSAFGSGANTGSAFGGTASTPSTASAFGGGSAFGGAGS” the “transcriptional activation domain activity” value was 32700.
For “CRLYRLGFFVFLLVLSGLSFLSFYQVYRLFYFLLLFLFFSLFVFFSFCLILYF”, the “transcriptional activation domain activity” value was 57400.
In the case of “MPRPFSFFFSFLLFLLFFFSIFFIFLFLLFFFLVKGIWTTYKYVLVTCLYLVI”, the “transcriptional activation domain activity” value is reported as 32700.
For “MYSFRLISLMLLSAIALVAANPLMIRIWPLRGGSLTFNLLLLFRWLDFQFVSH”, the “transcriptional activation domain activity” value was 59900.
In the case of “STPAPTTAAGGKKEAEKPEEKSEEKPEEKPAEKPAEKPAEKPAEVKPEEKAIQ”, the “transcriptional activation domain activity” value is reported as 25400.
With “NPTDTILILATSLPTVSTFFINYLLLQGLIGSAIELTQAYRLLWNIVIVRWFA” the “transcriptional activation domain activity” value was 54500.
“HSKHSAEGIVVSKYLMCFLLFCVWIFTHLVEVAVLLLQIIYNTLFILRSLFLH” was tested, and the “transcriptional activation domain activity” value was 63800.
